Experimental findings from the supplement of paper PMC11246515 are described below.

The series in a line: total protein half-life in vivo (active degradation + dilution); higher = more stable protein.
Setting [1] is: E. coli NCM3722 delta-clpP delta-lon delta-hslV, growth: N-lim chemostat, doubling time 6 h.
Setting [2] is: E. coli NCM3722 delta-clpP, growth: N-lim chemostat, doubling time 6 h.
[3] abbreviates: E. coli NCM3722 delta-hslV, growth: N-lim chemostat, doubling time 6 h.
Where [4] appears, read: E. coli NCM3722 delta-lon, growth: N-lim chemostat, doubling time 6 h.
Setting [5] is: E. coli NCM3722 delta-smpB, growth: N-lim chemostat, doubling time 6 h.
Where [6] appears, read: wild type E. coli NCM3722, growth: C-lim chemostat, doubling time 3 h.
[7] abbreviates: wild type E. coli NCM3722, growth: C-lim chemostat, doubling time 6 h.
Where [8] appears, read: wild type E. coli NCM3722, growth: C-lim chemostat, doubling time 12 h.
The mark [9] stands for this setting: wild type E. coli NCM3722, growth: N-lim chemostat, doubling time 6 h.
The mark [10] stands for this setting: wild type E. coli NCM3722, growth: N-lim chemostat, doubling time 12 h.
Where [11] appears, read: wild type E. coli NCM3722, growth: P-lim chemostat, doubling time 6 h.
The mark [12] stands for this setting: wild type E. coli NCM3722, growth: P-lim chemostat, doubling time 12 h.

± gives the standard deviation of the averaged measurements.

In the case of “MKFVKYFLILAVCCILLGAGSIYGLYRYIEPQLPDVATLKDVRLQIPMQIYSADGELIAQYGEKRRIPVTLDQIPPEMVKAFIATEDSRFYEHHGVDPVGIFRAASVALFSGHASQGASTITQQLARNFFLSPERTLMRKIKEVFLAIRIEQLLTKDEILELYLNKIYLGYRAYGVGAAAQVYFGKTVDQLTLNEMAVIAGLPKAPSTFNPLYSMDRAVARRNVVLSRMLDEGYITQQQFDQTRTEAINANYHAPEIAFSAPYLSEMVRQEMYNRYGESAYEDGYRIYTTITRKVQQAAQQAVRNNVLDYDMRHGYRGPANVLWKVGESAWDNNKITDTLKALPTYGPLLPAAVTSANPQQATAMLADGSTVALSMEGVRWARPYRSDTQQGPTPRKVTDVLQTGQQIWVRQVGDAWWLAQVPEVNSALVSINPQNGAVMALVGGFDFNQSKFNRATQALRQVGSNIKPFLYTAAMDKGLTLASMLNDVPISRWDASAGSDWQPKNSPPQYAGPIRLRQGLGQSKNVVMVRAMRAMGVDYAAEYLQRFGFPAQNIVHTESLALGSASFTPMQVARGYAVMANGGFLVDPWFISKIENDQGGVIFEAKPKVACPECDIPVIYGDTQKSNVLENNDVEDVAISREQQNVSVPMPQLEQANQALVAKTGAQEYAPHVINTPLAFLIKSALNTNIFGEPGWQGTGWRAGRDLQRRDIGGKTGTTNSSKDAWFSGYGPGVVTSVWIGFDDHRRNLGHTTASGAIKDQISGYEGGAKSAQPAWDAYMKAVLEGVPEQPLTPPPGIVTVNIDRSTGQLANGGNSREEYFIEGTQPTQQAVHEVGTTIIDNGEAQELF”, the “total protein half-life in vivo” value was 5.593 ± 0.05 h under setting [1]; 5.49 ± 0.056 h under setting [2]; 5.4453 ± 0.0032 h under setting [3]; 6.37 ± 1.3 h under setting [4]; 5.3 ± 0.31 h under setting [5]; 3.35 ± 0.36 h under setting [6]. The “total protein half-life in vivo” value is 5.7 ± 0.38 h under setting [7]; 10.82 ± 0.022 h under setting [8]; 5.08 ± 0.37 h under setting [9]; 10.2 ± 0.59 h under setting [10]; 4.46 ± 0.3 h under setting [11]; 7.61 ± 0.27 h under setting [12].
With “MNHAPHLYFAWQQLVEKSQLMLRLATEEQWDELIASEMAYVNAVQEIAHLTEEVDPSTTMQEQLRPMLRLILDNESKVKQLLQIRMDELAKLVGQSSVQKSVLSAYGDQGGFVLAPQDNLF [P0ABY2]”, the “total protein half-life in vivo” value under setting [6] amounted to 0.191 h.
Consider “MSRLVVVSNRIAPPDEHAASAGGLAVGILGALKAAGGLWFGWSGETGNEDQPLKKVKKGNITWASFNLSEQDLDEYYNQFSNAVLWPAFHYRLDLVQFQRPAWDGYLRVNALLADKLLPLLQDDDIIWIHDYHLLPFAHELRKRGVNNRIGFFLHIPFPTPEIFNALPTYDTLLEQLCDYDLLGFQTENDRLAFLDCLSNLTRVTTRSAKSHTAWGKAFRTEVYPIGIEPKEIAKQAAGPLPPKLAQLKAELKNVQNIFSVERLDYSKGLPERFLAYEALLEKYPQHHGKIRYTQIAPTSRGDVQAYQDIRHQLENEAGRINGKYGQLGWTPLYYLNQHFDRKLLMKIFRYSDVGLVTPLRDGMNLVAKEYVAAQDPANPGVLVLSQFAGAANELTSALIVNPYDRDEVAAALDRALTMSLAERISRHAEMLDVIVKNDINHWQECFISDLKQIVPRSAESQQRDKVATFPKLA”, for which the “total protein half-life in vivo” value under setting [1] is 5.02 ± 0.71 h; the “total protein half-life in vivo” value under setting [2] was 4.68 ± 0.38 h; the “total protein half-life in vivo” value under setting [3] worked out at 2.95 ± 0.046 h; the “total protein half-life in vivo” value under setting [4] worked out at 3.23 ± 0.4 h; the “total protein half-life in vivo” value under setting [5] amounted to 2.85 ± 0.093 h; the “total protein half-life in vivo” value under setting [6] is 2.4 ± 0.054 h. Besides, the “total protein half-life in vivo” value under setting [7] was 3.858 ± 0.033 h; the “total protein half-life in vivo” value under setting [8] worked out at 6.061 ± 0.06 h; the “total protein half-life in vivo” value under setting [9] amounted to 3.02 ± 0.29 h; the “total protein half-life in vivo” value under setting [10] was determined as 4.47 ± 0.49 h; the “total protein half-life in vivo” value under setting [11] is 3.72 ± 0.24 h; the “total protein half-life in vivo” value under setting [12] stood at 6.83 ± 0.3 h.
For the sequence “MDTSLAEEVQQTMATLAPNRFFFMSPYRSFTTSGCFARFDEPAVNGDSPDSPFQQKLAALFADAKAQGIKNPVMVGAIPFDPRQPSSLYIPESWQSFSRQEKQASARRFTRSQSLNVVERQAIPEQTTFEQMVARAAALTATPQVDKVVLSRLIDITTDAAIDSGVLLERLIAQNPVSYNFHVPLADGGVLLGASPELLLRKDGERFSSIPLAGSARRQPDEVLDREAGNRLLASEKDRHEHELVTQAMKEVLRERSSELHVPSSPQLITTPTLWHLATPFEGKANSQENALTLACLLHPTPALSGFPHQAATQVIAELEPFDRELFGGIVGWCDSEGNGEWVVTIRCAKLRENQVRLFAGAGIVPASSPLGEWRETGVKLSTMLNVFGLH [P0AEJ2]”, the “total protein half-life in vivo” value by setting is: under setting [6], 2.43 h; under setting [7], 2.54 h.
Regarding “MAMFGFPHWQLKSTSTESGVVAPDERLPFAQTAVMGVQHAVAMFGATVLMPILMGLDPNLSILMSGIGTLLFFFITGGRVPSYLGSSAAFVGVVIAATGFNGQGINPNISIALGGIIACGLVYTVIGLVVMKIGTRWIERLMPPVVTGAVVMAIGLNLAPIAVKSVSASAFDSWMAVMTVLCIGLVAVFTRGMIQRLLILVGLIVACLLYGVMTNVLGLGKAVDFTLVSHAAWFGLPHFSTPAFNGQAMMLIAPVAVILVAENLGHLKAVAGMTGRNMDPYMGRAFVGDGLATMLSGSVGGSGVTTYAENIGVMAVTKVYSTLVFVAAAVIAMLLGFSPKFGALIHTIPAAVIGGASIVVFGLIAVAGARIWVQNRVDLSQNGNLIMVAVTLVLGAGDFALTLGGFTLGGIGTATFGAILLNALLSRKLVDVPPPEVVHQEP”, the “total protein half-life in vivo” value is 4.84 ± 1.8 h under setting [2]; 3.33 ± 1.9 h under setting [3]; above 8 h under setting [4]; 3.66 ± 0.6 h under setting [5]; 3.82 h under setting [9]; 5.58 ± 0.86 h under setting [10].
For the sequence “MKGRLLDAVPLSSLTGVGAALSNKLAKINLHTVQDLLLHLPLRYEDRTHLYPIGELLPGVYATVEGEVLNCNISFGGRRMMTCQISDGSGILTMRFFNFSAAMKNSLAAGRRVLAYGEAKRGKYGAEMIHPEYRVQGDLSTPELQETLTPVYPTTEGVKQATLRKLTDQALDLLDTCAIEELLPPELSQGMMTLPEALRTLHRPPPTLQLSDLETGQHPAQRRLILEELLAHNLSMLALRAGAQRFHAQPLSANDTLKNKLLAALPFKPTGAQARVVAEIERDMALDVPMMRLVQGDVGSGKTLVAALAALRAIAHGKQVALMAPTELLAEQHANNFRNWFAPLGIEVGWLAGKQKGKARLAQQEAIASGQVQMIVGTHAIFQEQVQFNGLALVIIDEQHRFGVHQRLALWEKGQQQGFHPHQLIMTATPIPRTLAMTAYADLDTSVIDELPPGRTPVTTVAIPDTRRTDIIDRVHHACITEGRQAYWVCTLIEESELLEAQAAEATWEELKLALPELNVGLVHGRMKPAEKQAVMASFKQGELHLLVATTVIEVGVDVPNASLMIIENPERLGLAQLHQLRGRVGRGAVASHCVLLYKTPLSKTAQIRLQVLRDSNDGFVIAQKDLEIRGPGELLGTRQTGNAEFKVADLLRDQAMIPEVQRLARHIHERYPQQAKALIERWMPETERYSNA”, the “total protein half-life in vivo” value reads like this: under setting [1], 5.83 ± 0.22 h; under setting [2], 5.05 ± 0.14 h; under setting [3], 5.74 ± 0.61 h; under setting [4], 5.32 ± 0.16 h; under setting [5], 5.01 ± 0.36 h; under setting [7], 6.17 ± 0.47 h. Further, the “total protein half-life in vivo” value runs as follows: under setting [8], 10.5 ± 0.46 h; under setting [9], 4.91 ± 0.11 h; under setting [10], 8.73 ± 0.86 h; under setting [11], 6.25 ± 0.072 h; under setting [12], 11.3 ± 0.53 h.
“MRILLSNDDGVHAPGIQTLAKALREFADVQVVAPDRNRSGASNSLTLESSLRTFTFENGDIAVQMGTPTDCVYLGVNALMRPRPDIVVSGINAGPNLGDDVIYSGTVAAAMEGRHLGFPALAVSLDGHKHYDTAAAVTCSILRALCKEPLRTGRILNINVPDLPLDQIKGIRVTRCGTRHPADQVIPQQDPRGNTLYWIGPPGGKCDAGPGTDFAAVDEGYVSITPLHVDLTAHSAQDVVSDWLNSVGVGTQW [P0A840]”: the “total protein half-life in vivo” value by setting is: under setting [1], 4.833 ± 0.047 h; under setting [2], 4.03 h; under setting [3], 4.1 ± 0.25 h; under setting [5], 3.71 ± 0.83 h; under setting [6], 3.04 ± 0.33 h; under setting [7], 6.21 ± 0.81 h. Besides, the “total protein half-life in vivo” value under setting [8] was 8.36 ± 0.48 h, the “total protein half-life in vivo” value under setting [9] worked out at 4.5 h and the “total protein half-life in vivo” value under setting [10] stood at 5.84 ± 1.5 h.
